Results published in paper PMC3357048 (Nature structural & molecular biology, 2011).
Blank lines part the entries; values can stand above or below the molecule they belong to.

Assays:
[1] = target: sFcεRIα W87D (immobilised for SPR) (human) (UniProt P12319); test: SPR
crystal structure = target: the molecule itself; test: crystal structure

dH [1]: -63.6 kJ/mol
Molecule: Fcε3-4 (sub-fragment of IgE-Fc lacking the Cε2 domains) (from UniProt P01854 211-427) (domain or fragment)

B1: human IgE-Fc (dimer of Cε2-Cε3-Cε4 domains) (domain or fragment)
chain: CSRDFTPPTVKILQSSCDGGGHFPPTIQLLCLVSGYTPGTINITWLEDGQVMDVDLSTASTTQEGELASTQSELTLSQKHWLSDRTYTCQVTYQGHTFEDSTKKCADSNPRGVSAYLSRPSPFDLFIRKSPTITCLVVDLAPSKGTVNLTWSRASGKPVNHSTRKEEKQRNGTLTVTSTLPVGTRDWIEGETYQCRVTHPHLPRALMRSTTKTSGPRAAPEVYAFATPEWPGSRDKRTLACLIQNFMPEDISVQWLHNEVQLPDARHSTTQPRKTKGSGFFVFSRLEVTRAEWEQKDEFICRAVHEAASPSQTVQRAVSVNPGL
modifications: N-linked high-mannose carbohydrate at Asn394
stoichiometry N (crystal structure): 2
